{"source": "patent US20090166224A1", "about": "(published 2009)", "assay_in_all_cases": "human serum on Con A/WGA/Jacalin column, lectin-specific displacer fraction, LC-MS/MS; grade = SEQUEST rank group (+ = ranks 1-5, ++++ = 16-20)", "key": {"APOLIPOPROTEIN C-III": {"target": "T1, APOLIPOPROTEIN C-III (human, UniProt P02656 21-99)", "T1 construct": "from human serum; also called APC3", "T1 sequence (P02656 21-99 limits assumed)": "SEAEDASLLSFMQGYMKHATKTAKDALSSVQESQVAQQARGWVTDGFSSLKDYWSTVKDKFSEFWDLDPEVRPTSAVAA"}, "APOLIPOPROTEIN E": {"target": "T2, APOLIPOPROTEIN E (human, UniProt P02649 19-317)", "T2 construct": "from human serum; also called APE", "T2 sequence (P02649 19-317 limits assumed)": "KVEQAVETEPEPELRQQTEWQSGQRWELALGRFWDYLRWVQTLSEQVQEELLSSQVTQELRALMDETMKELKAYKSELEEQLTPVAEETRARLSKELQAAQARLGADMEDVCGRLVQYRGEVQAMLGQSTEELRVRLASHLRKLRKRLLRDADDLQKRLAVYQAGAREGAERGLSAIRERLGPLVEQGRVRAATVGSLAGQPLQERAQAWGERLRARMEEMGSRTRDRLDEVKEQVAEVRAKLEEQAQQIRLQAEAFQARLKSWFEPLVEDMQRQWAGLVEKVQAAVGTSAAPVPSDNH"}, "[1]": {"target": "T3, IG GAMMA-3 CHAIN C REGION (human, UniProt P01860-1 1-377)", "T3 construct": "domain: C region; Polyclonal serum IgG3, identified through its constant region; variable regions and light chains not defined; also called GC3", "T3 sequence (P01860 other isoform, or with tags, fused parts or gaps limits assumed)": "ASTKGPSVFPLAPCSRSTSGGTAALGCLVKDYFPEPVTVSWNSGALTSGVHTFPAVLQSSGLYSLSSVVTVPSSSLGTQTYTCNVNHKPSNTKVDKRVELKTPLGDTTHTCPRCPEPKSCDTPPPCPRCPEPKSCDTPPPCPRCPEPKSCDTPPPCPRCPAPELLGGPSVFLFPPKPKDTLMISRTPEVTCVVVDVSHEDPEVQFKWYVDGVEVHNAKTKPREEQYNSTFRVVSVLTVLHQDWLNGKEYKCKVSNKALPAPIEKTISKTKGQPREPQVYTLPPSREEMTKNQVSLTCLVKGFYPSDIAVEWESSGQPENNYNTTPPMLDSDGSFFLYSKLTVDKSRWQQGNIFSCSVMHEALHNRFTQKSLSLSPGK"}, "[2]": {"target": "T4, HAPTOGLOBIN-RELATED PROTEIN (human, UniProt P00739 1-348, limits assumed)", "T4 construct": "from human serum; also called HPTR", "T4 sequence (looked up)": "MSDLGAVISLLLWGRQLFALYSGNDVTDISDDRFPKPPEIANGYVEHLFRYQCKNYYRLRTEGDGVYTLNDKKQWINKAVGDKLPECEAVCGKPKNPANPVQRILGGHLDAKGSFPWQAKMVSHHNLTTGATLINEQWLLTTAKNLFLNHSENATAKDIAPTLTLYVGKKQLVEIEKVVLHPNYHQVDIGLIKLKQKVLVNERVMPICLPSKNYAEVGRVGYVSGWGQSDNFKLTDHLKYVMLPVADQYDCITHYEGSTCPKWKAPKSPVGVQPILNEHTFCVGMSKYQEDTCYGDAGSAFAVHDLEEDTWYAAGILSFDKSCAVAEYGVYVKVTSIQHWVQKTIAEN"}, "[3]": {"target": "T5, INTER-ALPHA-TRYPSIN INHIBITOR HEAVY CHAIN H1 (human, UniProt P19827 35-672)", "T5 construct": "from human serum; also called ITH1", "T5 sequence (looked up)": "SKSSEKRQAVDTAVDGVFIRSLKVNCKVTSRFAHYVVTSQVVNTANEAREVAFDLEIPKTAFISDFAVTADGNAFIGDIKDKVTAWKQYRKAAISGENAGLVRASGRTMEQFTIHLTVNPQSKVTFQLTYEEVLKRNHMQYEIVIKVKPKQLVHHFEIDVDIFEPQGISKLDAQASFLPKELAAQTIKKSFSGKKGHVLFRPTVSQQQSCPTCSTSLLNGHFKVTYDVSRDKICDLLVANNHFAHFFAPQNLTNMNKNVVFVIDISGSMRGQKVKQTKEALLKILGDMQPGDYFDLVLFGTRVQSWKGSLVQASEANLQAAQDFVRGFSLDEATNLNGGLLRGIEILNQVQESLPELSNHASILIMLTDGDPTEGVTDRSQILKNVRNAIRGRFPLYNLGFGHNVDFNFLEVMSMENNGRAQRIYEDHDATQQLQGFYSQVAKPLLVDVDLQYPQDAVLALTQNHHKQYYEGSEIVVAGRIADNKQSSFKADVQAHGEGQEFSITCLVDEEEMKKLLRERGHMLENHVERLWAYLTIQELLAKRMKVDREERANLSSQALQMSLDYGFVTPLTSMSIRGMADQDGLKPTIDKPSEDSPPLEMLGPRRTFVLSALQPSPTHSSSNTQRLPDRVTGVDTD"}, "[4]": {"target": "T6, INTER-ALPHA-TRYPSIN INHIBITOR HEAVY CHAIN H2 (human, UniProt P19823 55-702)", "T6 construct": "from human serum; also called ITH2", "T6 sequence (looked up)": "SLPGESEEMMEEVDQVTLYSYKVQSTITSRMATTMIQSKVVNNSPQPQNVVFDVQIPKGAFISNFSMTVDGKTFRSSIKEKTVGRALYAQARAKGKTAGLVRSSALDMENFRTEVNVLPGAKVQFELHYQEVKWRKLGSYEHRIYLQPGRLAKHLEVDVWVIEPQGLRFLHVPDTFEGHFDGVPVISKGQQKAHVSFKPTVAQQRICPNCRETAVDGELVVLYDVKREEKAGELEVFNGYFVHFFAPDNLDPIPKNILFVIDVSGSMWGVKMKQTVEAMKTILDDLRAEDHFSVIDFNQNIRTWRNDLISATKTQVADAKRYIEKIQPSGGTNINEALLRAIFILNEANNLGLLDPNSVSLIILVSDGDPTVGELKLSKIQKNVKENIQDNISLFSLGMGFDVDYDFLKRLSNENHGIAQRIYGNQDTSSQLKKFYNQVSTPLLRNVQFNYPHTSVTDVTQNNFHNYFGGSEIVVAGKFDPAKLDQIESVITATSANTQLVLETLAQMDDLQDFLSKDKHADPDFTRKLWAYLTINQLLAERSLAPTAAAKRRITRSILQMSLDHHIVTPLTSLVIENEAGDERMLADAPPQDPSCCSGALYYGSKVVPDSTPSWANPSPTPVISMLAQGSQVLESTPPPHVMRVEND"}, "Alpha-1-antitrypsin": {"target": "T7, Alpha-1-antitrypsin (human, UniProt P01009 25-418)", "T7 construct": "also called A1AT; α1-antitrypsin", "T7 sequence (P01009 25-418 limits assumed)": "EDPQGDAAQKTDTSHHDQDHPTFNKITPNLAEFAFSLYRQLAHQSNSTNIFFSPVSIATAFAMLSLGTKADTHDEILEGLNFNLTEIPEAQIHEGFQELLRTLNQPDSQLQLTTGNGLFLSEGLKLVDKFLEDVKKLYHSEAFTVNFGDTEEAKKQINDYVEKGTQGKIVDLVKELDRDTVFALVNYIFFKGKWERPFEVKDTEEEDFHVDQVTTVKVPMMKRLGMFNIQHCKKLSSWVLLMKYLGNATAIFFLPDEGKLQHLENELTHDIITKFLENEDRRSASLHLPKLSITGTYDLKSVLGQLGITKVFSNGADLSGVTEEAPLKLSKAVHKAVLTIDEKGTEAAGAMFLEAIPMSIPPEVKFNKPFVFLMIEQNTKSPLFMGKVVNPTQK"}}, "data": [{"binder": "Jacalin lectin, agarose-bound (other, immobilized on agarose, Lectin; released with galactose; Coated on the plate in the lectin ELISA) chain 1: GKAFDDGAFTGIREINLSYNKETAIGDFQVVYDLNGSPYVGQNHKSFITGFTPVKISLDFPSEYIMEVSGYTGNVSGYVVVRSLTFKTNKKTYGPYGVTSGTPFNLPIENGLIVGFKGSIGYWLDYFSMYLSL chain 2: NEQSGKSQTVIVGSWGAKVS", "values": [{"measurement": "SEQUEST ranking (relative abundance in the Jacalin displacement fraction)", "setting": "APOLIPOPROTEIN C-III", "value": "6 to 10", "unit": "rank"}, {"measurement": "SEQUEST ranking (relative abundance in the Jacalin displacement fraction)", "setting": "APOLIPOPROTEIN E", "value": "11 to 15", "unit": "rank"}, {"measurement": "SEQUEST ranking (relative abundance in the Jacalin displacement fraction)", "setting": "[1]", "value": "16 to 20", "unit": "rank"}, {"measurement": "SEQUEST ranking (relative abundance in the Jacalin displacement fraction)", "setting": "[2]", "value": "6 to 10", "unit": "rank"}, {"measurement": "SEQUEST ranking (relative abundance in the Jacalin displacement fraction)", "setting": "[3]", "value": "6 to 10", "unit": "rank"}, {"measurement": "SEQUEST ranking (relative abundance in the Jacalin displacement fraction)", "setting": "[4]", "value": "16 to 20", "unit": "rank"}, {"measurement": "SEQUEST ranking (relative abundance in the Jacalin displacement fraction)", "setting": "Alpha-1-antitrypsin", "value": "1 to 5", "unit": "rank"}]}]}
